Bridges are numbered along the chain shown (N, C = ends). Where no end group is shown, it is not given here.
T1: TNFR1 (Homo sapiens, UniProt P19438)
T1 chain: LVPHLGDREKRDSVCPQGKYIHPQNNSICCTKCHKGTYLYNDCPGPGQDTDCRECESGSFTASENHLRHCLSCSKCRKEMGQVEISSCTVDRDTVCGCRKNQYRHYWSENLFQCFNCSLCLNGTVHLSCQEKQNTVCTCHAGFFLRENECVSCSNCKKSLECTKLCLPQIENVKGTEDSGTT


Target: T1, TNFR1
Assay: ELISA

Binder	Kd [nM]
CTISRIAVSYQTKVNRLSC (disulfide 1-19) [L16R (α_CC8 L16R cyclic peptide)]	177
YCWSQYLCY (disulfide 2-8 (inferred)) [WP9QY]	1150

— article PMC11547827 (2024)
